Laboratory results published in patent US7303752B2, “Hookworm vaccine” (The George Washington University, priority 2001, dated 2007).
Several values for one entry are separate records, joined by “and”; a condition that tells them apart may be missing. Equal values may be shown once.

B1: Ac-CYS: A. caninum cystatin antigen, SEQ ID NO: 100; Pichia pastoris expressed (protein, listed as Ancylostoma caninum)
chain: MPYLAFIVALLACTVMSGHGQMTGGLTKQDPNDPEHMARAWKAAKGINEDASNAGPYHMIPIKIVKAESQVVAGVRYIFEVLFGESTCKKGHMAATELSASNCELKEGGNRALYKVELWEKPWENFEQFNVEKIRNVAAGEQI
B2: Ac-MTP-2: A. caninum astacin protease antigen, SEQ ID NO: 42; Pichia pastoris expressed (protein, listed as Ancylostoma caninum)
chain: MKYFVLCFCAFFVVNADEEDDLPRNPLWDAYKDDNGKYVIPYVINGSYGEEKKVLFEMMDEIDKNTCVRFIPRSTEQDYIEIVNRLGEGTGAVVGKPGGKSIVLLESSKILNDPTPAPVMQTLMKIIGLPPEHIRPERKDHIKIHWENIEKGYEAFFALSSVKPDPYGIPYDYYSIMHYKKDAFAKPGTITMETLDKRYQDIIGNQEKPSKLDYKKICTKYKCDICMGEKMKY
B3: Ac-MTP-1: A. caninum L3 astacin zinc metalloprotease, SEQ ID NO: 16 (also listed as SEQ ID NO: 40); E. coli fusion protein (protein, listed as Ancylostoma caninum)
chain: MRVLLLLLLLSICASAGFLDTKFGQKIKKTLDKIKAVLNGTALIAIREKFIRLREKIKAKLTLSPARKAILDEVMKHIKMIKKDKIQEKGDSIDEINEKSAIGQLLYQGDIVLTEKQAQQITEDIENDKGDREKRQAFRDRNYPRTLWSKGVYFHFHRNATPEVRSVFVKGAKLWMKDTCIDFFESNSAPDRIRVFKENGCWSYVGRLGGEQDLSLGEGCQSVGTAAHEIGHAIGFYHTHARHDRDNFITFNAQNVKPDWLDQFTLQTPATNENYGITYDYGSIMHYGANSASQNGRPTMVPHDPKYVETLGINKHYDCTKNCDPATSAQCKMGGFPHPRDCTRCICPSGYGGKLCDQKPAGCGSIYQATNQYQTLHDEIGDKRAGQRPREDMDFCYYWITAPKGSKIEIKIAGLSQGAAVEGCQYWGVEIKTHADQRLTGYRFCAPEDVGVRLVSNFNIVPIITYNIFYATYVDIQYRIVGDNVGGPMPQPQPNSNCVDNEQCATLVRTKNFCQSRFFTSSVKRGLCPKSSGFCR
B4: Ac-TTR-1: A. caninum transthyretin antigen, SEQ ID NO: 30; E. coli derived, given with SBAS2 (protein, listed as Ancylostoma caninum)
chain: MIQLFLLALVPMCISVREQSIAVKGRLLCGDQPAANVRVKLWEEDTGPDPDDLLDAGYTNSNGEFQLQGGTIETTPIDPVLKIYHDCNDVTGFLSVPKPGSRKVRFSLPDKYISDGMVPKKVMDIGVINLEVEFEKEGREFIVD

Experiments:
Type in all cases: in vivo, dog
[1] = test system: antigen-specific IgG1 and IgG2; assay: Antibody titers in HV-12 (Ac-CYS, Ac-MTP-2, Ac-GST in AS03, irradiated L3); details: for Antibody titers, IgG1, GEOMEAN / Antibody titers, IgG2, GEOMEAN: geometric mean of group; for Antibody titers, IgG1 / Antibody titers, IgG2: individual dogs, after four immunizations, L3 Extract = group E dogs vaccinated with irradiated L3
Protocol: (§1) Brief Outline of Study Sections: Purpose bred beagles were randomized into five groups. […] groups were given one of three candidate vaccines: Ac-Cystatin, Ac-MTP-2 and Ac-GST in combination with the adjuvant ASO3. One group will serve as the negative control receiving the adjuvant only. Another group will be a positive control immunized with irradiated infective larvae. Each animal's specific antibody response was evaluated by direct ELISA using serum taken prior to the infective challenge. Cellular immune responses were assessed by peripheral (blood cells) lymphoproliferative responses to specific recombinant antigens and/or crude extract of infective larvae (L3) or adult worms. Local cellular immune responses were performed post mortem with lymphocytes extracted from mesenteric lymph nodes and, if considered, spleen. After immunization, animals were challenged with a known number dose of infective third stage larvae of A. caninum. Quantitative ova counts, used to evaluate worm burden, were determined from fecal samples collected three times per week. […] Tissues from different organs were examined macro and microscopically to assess any consequence of the vaccine, parasite or immune related lesions.
(§2) Administration of Test and Control Articles: The vaccines and adjuvant were administered intramuscularly (IM) […] beginning when the dogs are 62+/−4 days old. The vaccines are boosted at 21+/−3-day intervals. Four doses of the vaccines were given 21 days apart (days 0, 21, 42, and […]). The dogs were challenged percutaneously with 500 A. caninum L3, 14 days after the final vaccination.
Serum Samples for Quantitative ELISA Antibody Titers: Animals treated with vaccines containing foreign proteins develop an immune response resulting in an increased level of high affinity serum antibodies that are directed against the antigen. […] White blood cells were collected for immunological measurements nine (9) days after the last boost and at the time of euthanasia to address the cellular immune response status and cytokine production upon in vitro restimulation of lymphocytes.

A. caninum [2] = assay: Canine vaccine trial HV-12, percutaneous challenge with 500 A. caninum L3; details: for Adult Hookworm Worm Counts, Intestine, Male, Average / Adult Hookworm Worm Counts, Intestine, Female, Average / Adult Hookworm Worm Counts, Total, Average: group average; for Adult Hookworm Worm Counts, Intestine, Male, Average: AS03 control 64; for Adult Hookworm Worm Counts, Intestine, Female, Average: AS03 control 71; for Adult Hookworm Worm Counts, Total, Average: AS03 control 137
Protocol: as §1, §2
Challenge Infection: Ancylostoma caninum larvae were cultured from the eggs collected in the feces of infected dogs. All hookworms in the infective challenge were approximately equal age (17±7 days). The species identity of the infective larva dose were validated using PCR DNA amplification and specific oligonucleotide primers. Overnight-collected feces of A. caninum-infected dogs were cultured, extracted and counted. All dogs were infected by the footpad method with the same dose (500+/−5%, of 3rd stage larvae of A. caninum. Larval challenge occurs on one of three consecutive days (at age 120+/−9 days) in 5 series. To minimize the difference in the infective L3 doses, each series included one dog from each (A-E group). […]
Adult Worm Count. Adult worms retained in the small and large intestines were collected. The small and large bowel will be collected and the small intestine will be suspended (the large bowel will not be suspended) in a container and incubated for at least two hours at 35° C. saline to collect the adult parasites. The adult worms were separated from the intestinal contents, counted, and preserved in formalin for subsequent count and analysis of sex, length and weight. Results and Analysis

A. caninum [3] = assay: Canine vaccine trial with Ac-MTP-1, subcutaneous challenge with 500 A. caninum L3
From the text: To test whether Ac-MTP-1 could be an effective vaccine, two groups of five (5) purpose-bred male beagles 8+1 wk of age were vaccinated either with the recombinant (expressed and isolated from Escherichia coli) fusion protein formulated with AS02A adjuvant, or adjuvant alone. The composition of AS02A, which has been successfully used in several malaria vaccine clinical studies, is described elsewhere (Lalvani et al, 1999; Bojang et al, 2001; Kester et al, 2001). Details of the animal husbandry and housing conditions were reported previously (Hotez et al, 2002a). The recombinant fusion protein containing a polyhistidine tag was purified from washed E. coli inclusion bodies that were solubilized in 6 M guanidine-HCl in 10 mM Tris HCl, pH 8.0. The solubilized inclusion bodies were processed in 5-10 ml batches by gel filtration chromatography (Sephacryl S-300, 26/60 gel filtration column [Amersham Pharmacia] pre-equilibrated in a buffer containing 0.1 NaH2PO4, 10 mM Tris-HCl and 6 M guanidine) at room temperature (flow rate of 2 ml/minute). Selected fractions containing Ac-MTP-1 (as determined by analysis on sodium dodecyl sulfate-polyacrylamide gel electrophoresis [SDS-PAGE]) were pooled, refolded according to the method of Singh et al (2001), and then loaded onto a 5 ml Hi-Trap IMAC column (Amersham Pharmacia) charged with ZnCl2 and equilibrated in 50 mM sodium phosphate pH 7.2, 1 M urea, and 0.5 M NaCl. The column was subsequently washed with 15 column volumes of equilibration buffer, and the bound protein was eluted with 50 mM sodium phosphate pH7.2, 1 M urea, 0.5 M NaCl, and 50 mM ethylenediamine tetraacetic acid (EDTA). Eluted samples containing protein were pooled and dialyzed against 10 mM Tris-HCl pH 8.0, 5% glycerol, 1 mM dithiothreitol, and 2 mM EDTA.
The recombinant Ac-MTP-1 fusion protein was mixed with SBAS2 adjuvant and administered to each of five dogs in four intramuscular injections on days 1, 4, 43, and 50. […] Antigen-specific canine IgG2 and IgE antibodies were measured by indirect enzyme-linked immunosorbent assay (ELISA) as described previously (Hotez et al, 2002a). […] Quantitative hookworm egg counts (McMaster technique) on each dog were obtained 3 days per wk beginning on day 12 post-infection (PI). Five wk post-infection, the dogs were killed by intravenous barbituate injection, and the adult hookworms were recovered and counted from the small and large intestines at necropsy (Hotez et al., 2002c). The statistical significance of differences between adult hookworm burdens was determined using the Anova test, as were differences in hematological parameters and in quantitative hookworm egg counts. Comparisons of hookworm burden and egg counts with antibody titers were measured using Spearman rank order (nonparametric) correlations. […]

A. caninum [4] = assay: Canine vaccine trial with Ac-TTR and SBAS2, L3 challenge: worm burden, blood loss, worm size
Protocol: E. coli derived antigens Ac-MTP-1 and Ac-TTR were tested in vaccine trials in dogs. Antigens were administered with adjuvant SBAS2. […] Subsequently the dogs were challenged by subcutaneous injection of L3 hookworm larvae.
Animals were also tested to ascertain whether vaccination with hookworm antigens protected against blood loss. […] Using the Mann-Whitney test, the differences in both hemoglobin (38B) concentration (P=0.036) and hematocrit (38A) concentration (P=0.009) between the TTR and adjuvant control groups were statistically significant.
Further, the differences in hemoglobin concentration translated to a statistically significant reduction in worm size. Data was collected using an imaging system based on scans of the worms recovered from a host. Worms were photographed with a CoolSnapPro digital camera (Media Cybernetics), and the images measured in ImagePro Software using a macro to determine worm length (in mm) compared between treatments. As shown in FIG. 39 there was a statistically significant reduction in worm size (between 1 and 2 mm) among the TTR vaccinated group relative to the adjuvant control group.

Row | Molecule | Antibody titers, IgG1, GEOMEAN [1] | Antibody titers, IgG2, GEOMEAN [1] | Antibody titers, IgG1 [1] | Antibody titers, IgG2 [1] | Adult Hookworm Worm Counts, Intestine, Male, Average (A. caninum [2]) | Adult Hookworm Worm Counts, Intestine, Female, Average (A. caninum [2]) | Adult Hookworm Worm Counts, Total, Average (A. caninum [2]) | Adult Hookworm Worm Counts, Colon, Female (A. caninum [2]; individual dogs) | Adult Hookworm Worm Counts, Colon, Male (A. caninum [2]; individual dogs) | Adult Hookworm Worm Counts, Intestine, Female (A. caninum [2]; individual dogs) | Adult Hookworm Worm Counts, Intestine, Male (A. caninum [2]; individual dogs) | Adult Hookworm Worm Counts, Intestine, Unk. Sex (A. caninum [2]; individual dogs) | Adult Hookworm Worm Counts, Total (A. caninum [2]; individual dogs) | reduction in worm burden, dog with highest versus dog with lowest antibody titer (A. caninum [3]; dog, in vivo) | hookworms recovered from the dog with the highest antibody titer (A. caninum [3]; single vaccinated dog) | hookworms recovered from the dog with the lowest antibody titer (A. caninum [3]; single vaccinated dog) | number of adult hookworms recovered (mean+standard deviation) (A. caninum [3]; vaccinated dogs, 5 wk after 500 L3 s.c., control dogs 143+30, not significant) | reduced hookworm burden (A. caninum [4]; one dog with high IgE and IgG1 antibody to TTR) | protection against blood loss (hemoglobin, hematocrit) (A. caninum [4]; versus adjuvant control, hemoglobin P=0.036, hematocrit P=0.009)
1 | B1 | 121,500 | 364,500 | 121,500 (3×) and 40,500 and 364,500 | 364,500 (3×) and 121,500 and 1,093,500 | 49 | 56 | 107 | 0 (3×) and 5 and 2 | 0 (3×) and 1 and 3 | 56 and 85 and 29 and 67 and 41 | 44 and 81 and 38 and 48 and 36 | 1 | 100 and 167 and 67 and 124 and 79 |  |  |  |  |  | 
2 | B2 | 62,850 | 121,500 | 121,500 (2×) and 40,500 (3×) | 364,500 and 121,500 (3×) and 40,500 | 61 | 60 | 132 | 10 and 3 and 2 and 15 and 0 | 11 and 2 and 1 (2×) and 9 | 71 and 51 and 41 and 65 and 73 | 64 (2×) and 49 and 41 and 87 |  | 156 and 105 and 85 and 153 and 161 |  |  |  |  |  | 
3 | B3 |  |  |  |  |  |  |  |  |  |  |  |  |  | 50% | 98 hookworms | 189 hookworms | 154+34 hookworms |  | 
4 | B4 |  |  |  |  |  |  |  |  |  |  |  |  |  |  |  |  |  | 6% | significant protection against blood loss
